Source: the supplement of paper PMC12042874
± gives the uncertainty stated by the source.

Assay: amyloid nucleation score (Sup35N fusion, yeast selection) (log enrichment); library NNK3; higher = more nucleation; inactive = no reads after selection
In short: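 Yeast lacking psi expressed peptides of 20 random codons fused to Sup35N, received 100 μM copper sulfate for 24 hours, and were then grown for 7 days at 30°C on medium lacking adenine and uracil. Illumina sequencing of input and output plasmid inserts provided the reads. Nucleation scores are DiMSum log enrichments of output over input, centred on the mode of non-aggregating sequences. Any sequence with under 100 input reads was excluded.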

For GVGGPDGCTGNDTFMRQYTN, which amyloid nucleation score is on record?
The amyloid nucleation score was “inactive”.

For HFILVNIAFLVTDPHWLVRV, which amyloid nucleation score is on record?
The amyloid nucleation score was “inactive”.

With PLLIAVQWTMTAGCRSHKLL as the substance, how does the amyloid nucleation score read?
The amyloid nucleation score was -0.781 ± 2.5.

With KERVNRSLTYTVFSS as the substance, how does the amyloid nucleation score read?
Its amyloid nucleation score is “inactive”.

Which amyloid nucleation score does the source give for WGQCNELTMFFRFFLTFYIA here?
The amyloid nucleation score was “inactive”.

Which amyloid nucleation score does the source give for KKDQTMVES here?
The amyloid nucleation score was “inactive”.

Which amyloid nucleation score does the source give for GLSLNYCVLGYGLLTM here?
The amyloid nucleation score was “inactive”.

For RNGLSIGVNVGHLT, which amyloid nucleation score is on record?
Its amyloid nucleation score is “inactive”.

With SYYAHL as the substance, how does the amyloid nucleation score read?
Its amyloid nucleation score is “inactive”.

Which amyloid nucleation score does the source give for SSLQHSAW here?
The amyloid nucleation score was “inactive”.

Which amyloid nucleation score does the source give for CIRSS here?
The amyloid nucleation score was “inactive”.

Which amyloid nucleation score does the source give for VCLCNIRDMAG here?
Its amyloid nucleation score is “inactive”.

For LRGMDYVCDEPLYVTLWVNR, which amyloid nucleation score is on record?
The amyloid nucleation score was “inactive”.

Which amyloid nucleation score does the source give for GVRHRLAVFQYMFTHVLWTM here?
The amyloid nucleation score was “inactive”.

With LIWFGGGPSRWSM as the substance, how does the amyloid nucleation score read?
Its amyloid nucleation score is -0.117 ± 1.1.

Which amyloid nucleation score does the source give for EMSFY here?
The amyloid nucleation score was “inactive”.

For RPSSVDRLGSRDIRG, which amyloid nucleation score is on record?
Its amyloid nucleation score is -0.413 ± 1.9.

For RLKRYLHSMTHRRMRERYCY, which amyloid nucleation score is on record?
The amyloid nucleation score was “inactive”.

For YCVQCR, which amyloid nucleation score is on record?
Its amyloid nucleation score is “inactive”.

For IAALNFSCRTLSL, which amyloid nucleation score is on record?
The amyloid nucleation score was “inactive”.

For CSNAHFWVRILKECSLRGSG, which amyloid nucleation score is on record?
The amyloid nucleation score was 0.587 ± 0.41.

Which amyloid nucleation score does the source give for SLWYIRSLLCFEVLSLFHLL here?
The amyloid nucleation score was “inactive”.

With SRLNWSRRWSLVSQNARRTS as the substance, how does the amyloid nucleation score read?
The amyloid nucleation score was “inactive”.

With GMAWLVGWLGLRLLTYFGYR as the substance, how does the amyloid nucleation score read?
Its amyloid nucleation score is “inactive”.

With LYIGQGSMIFFYSVVGFSAC as the substance, how does the amyloid nucleation score read?
Its amyloid nucleation score is 2.36 ± 0.087.

For AIWLCCQLLLM, which amyloid nucleation score is on record?
The amyloid nucleation score was 2.63 ± 0.066.

With FAKFAKSYNRPITVVLANCS as the substance, how does the amyloid nucleation score read?
Its amyloid nucleation score is “inactive”.

For FYWGAFNPYFVLIGILAYYT, which amyloid nucleation score is on record?
Its amyloid nucleation score is “inactive”.

For VLVVPKQVTWEVGF, which amyloid nucleation score is on record?
Its amyloid nucleation score is “inactive”.

With LEPDNYTLGGTKSTTTFAHR as the substance, how does the amyloid nucleation score read?
The amyloid nucleation score was “inactive”.

For MMCFTLS, which amyloid nucleation score is on record?
Its amyloid nucleation score is “inactive”.

With IVWASTWTCCTN as the substance, how does the amyloid nucleation score read?
Its amyloid nucleation score is 2.73 ± 0.049.

For TCEWQRTCNPVGMSYKWSRG, which amyloid nucleation score is on record?
Its amyloid nucleation score is “inactive”.

With VPRVSSTQDCNRLILRKVCL as the substance, how does the amyloid nucleation score read?
Its amyloid nucleation score is “inactive”.

For LSSIWKGLRGLFIFFWHIKK, which amyloid nucleation score is on record?
Its amyloid nucleation score is “inactive”.

For CDLDLLHGWCGNKRMGSCGR, which amyloid nucleation score is on record?
Its amyloid nucleation score is “inactive”.

For SMCMRCLSVSKKKAQKSDEP, which amyloid nucleation score is on record?
The amyloid nucleation score was “inactive”.

With YRHPTIECWSKMRCALVVCT as the substance, how does the amyloid nucleation score read?
The amyloid nucleation score was “inactive”.

For DILEVIDIF, which amyloid nucleation score is on record?
The amyloid nucleation score was “inactive”.

For RWWKKTIQIFKCFVKHLEWG, which amyloid nucleation score is on record?
Its amyloid nucleation score is “inactive”.

Which amyloid nucleation score does the source give for GWFMCVSTAWGVYNAYIPMQ here?
Its amyloid nucleation score is “inactive”.

Which amyloid nucleation score does the source give for IPFNPALLVPRGFGSFIIPA here?
Its amyloid nucleation score is “inactive”.

With ICSLCEHSFVRVNGMYWHRE as the substance, how does the amyloid nucleation score read?
Its amyloid nucleation score is 2.02 ± 0.092.

Which amyloid nucleation score does the source give for SCLMLSIYSSQTWKSLCGLK here?
The amyloid nucleation score was 0.95 ± 0.12.

Which amyloid nucleation score does the source give for WRSKLLM here?
The amyloid nucleation score was “inactive”.

For DALVSYCWLSNLDTAGKMET, which amyloid nucleation score is on record?
Its amyloid nucleation score is “inactive”.

For KLQEDKLGPSKNKPSVHLCF, which amyloid nucleation score is on record?
Its amyloid nucleation score is “inactive”.

Which amyloid nucleation score does the source give for FNANINNNGIRFRREVNLCW here?
The amyloid nucleation score was “inactive”.

For DFNLNEVDTDMGFSLSESL, which amyloid nucleation score is on record?
The amyloid nucleation score was “inactive”.

Which amyloid nucleation score does the source give for AGKDSPGTDHGGGKNNVRV here?
Its amyloid nucleation score is “inactive”.

For HGPAMTSRSRNTSVLVLVSP, which amyloid nucleation score is on record?
Its amyloid nucleation score is “inactive”.

Which amyloid nucleation score does the source give for WNFGFGVWRFTAGG here?
The amyloid nucleation score was 1.33 ± 0.067.

Which amyloid nucleation score does the source give for YFVTTVKVEALFQ here?
The amyloid nucleation score was -0.23 ± 0.55.

For CDFREVTLDY, which amyloid nucleation score is on record?
Its amyloid nucleation score is “inactive”.

For YSFSRY, which amyloid nucleation score is on record?
The amyloid nucleation score was “inactive”.

Which amyloid nucleation score does the source give for TNVSEFQALTWMNTWYSAFS here?
Its amyloid nucleation score is “inactive”.

With KVLSYRETVPRLICLIHSRP as the substance, how does the amyloid nucleation score read?
Its amyloid nucleation score is “inactive”.

With FFYSYGRLNPKYDRVYISFG as the substance, how does the amyloid nucleation score read?
Its amyloid nucleation score is -0.661 ± 0.98.

For FFKFFWFSRRPISSFLGLCV, which amyloid nucleation score is on record?
The amyloid nucleation score was 0.708 ± 0.15.

For LKYEERSGWWSLGSGVCGVV, which amyloid nucleation score is on record?
Its amyloid nucleation score is “inactive”.

With MSYVSFKFVERSMGNNSGGI as the substance, how does the amyloid nucleation score read?
Its amyloid nucleation score is -0.137 ± 0.64.

Which amyloid nucleation score does the source give for MACGGIKTIDTWNGDKFNVQ here?
Its amyloid nucleation score is “inactive”.

For VGAHSYHVRTPDTES, which amyloid nucleation score is on record?
Its amyloid nucleation score is 0.221 ± 0.47.

With YWLSPDKICTYYLVWVRRAP as the substance, how does the amyloid nucleation score read?
The amyloid nucleation score was “inactive”.

With GFSYM as the substance, how does the amyloid nucleation score read?
Its amyloid nucleation score is “inactive”.

With QLDHGH as the substance, how does the amyloid nucleation score read?
Its amyloid nucleation score is “inactive”.

With GWNLGMAHSRRYGPVNISAW as the substance, how does the amyloid nucleation score read?
Its amyloid nucleation score is “inactive”.

With IHLSCMIIKRHLSRYCDQSR as the substance, how does the amyloid nucleation score read?
Its amyloid nucleation score is “inactive”.

Which amyloid nucleation score does the source give for SWTCRFCHMSFIGML here?
Its amyloid nucleation score is 0.251 ± 0.43.

Which amyloid nucleation score does the source give for LNNFMWKHVMGYPYVAWLAF here?
The amyloid nucleation score was “inactive”.

For PNVLLIRVLIERSCKVGWNS, which amyloid nucleation score is on record?
Its amyloid nucleation score is “inactive”.

Which amyloid nucleation score does the source give for FWKCWAVPDVCFYVWRSGCF here?
Its amyloid nucleation score is “inactive”.

Which amyloid nucleation score does the source give for PRRMHMGHAVFDIMGTLRSK here?
Its amyloid nucleation score is 0.9 ± 0.15.

Which amyloid nucleation score does the source give for LNEFIKYLDICKFFSCSGRN here?
The amyloid nucleation score was 1.61 ± 0.1.

Which amyloid nucleation score does the source give for LTSCTATLCICCSRVVTVEI here?
Its amyloid nucleation score is 1.24 ± 0.082.

For GLNLR, which amyloid nucleation score is on record?
Its amyloid nucleation score is “inactive”.

With STVCWHMQRVASTVAL as the substance, how does the amyloid nucleation score read?
The amyloid nucleation score was “inactive”.

Which amyloid nucleation score does the source give for APIWVFRAYLVFL here?
Its amyloid nucleation score is “inactive”.

Which amyloid nucleation score does the source give for SFDQNRRVVIFVSPHSEGMR here?
The amyloid nucleation score was “inactive”.
